A protein production outcome set (Wang et al. 2014)

Assay: label from the status in PepcDB records
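Note: failed if final PepcDB status was selected cloned or expressed and not failed if soluble or beyond.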

Row | Sequence | protein production
1 | MSTDSPLRTTASTCCYCGVGCGVLIEHDGERILGVQGDPRHPANFGRLCSKGASLHLTGDLQARALYPQLRLGKQLARARSDWESALEHAAGRFAETIREHGPDSVAFYISGQLLTEDYYAFNKLARALVGTNNIDSNSRLCMSSAVVGYKRSLGADAPPCSYEDLDCADCVLIAGSNMAFAHPVLFRRLEAAKAARPEMRIVVIDPRRTDTCELADLHLALLPGTDVALFHGILHILLWEDWIDRSFIAEHTEGFADLKELVRDYTPAAVADICGIDRADLQRCAEWIGRSPRFLSLWCMGLNQSSAGSAKNSALINLHLATGKIGRAGCGPFSLTGQPNAMGGRETGSLANLLPGHREAADPGHRAEVAHYWGVEQLPTSPGLSAIELFDAVHDGRIKALWIACTNPAQSLPDQRKIHEALARCPFVVVQEAFAGTETCQYADLLLPAASWGEKEGSVTNSERRISHVRRAVPPPGEARQDWNIVCDFARRLEGHLRPAKPGLFAFADSRSLFDEYKLLTAGRDLDLSGLSYALLDRLGPQQWPFPTGAEQGTARLYADGRFPTASGRAQLVAEPYRAAQEKRDARYPLTLNTGRLRDQWHGMSRTGTCARLFGHEEEALVHLHPEELRRRQLLDGQLVRLKSRRGALVLPVSADDSVRPGQAFLPMHWGDRFLKGLGCNVLTLPAFDPLSKQPELKHAGVQVESVELPWRLFALVETDIQARFEALRALCEVFDHASFSLAGRERPALLVSAAHHEAPGADLLERIDRQLELLDGPILAYDDPRRAIGKRVRLEDGRIVAVRLAGETLARDWLKELWLTGRADSELRRWLLAPLGAAPGRPSQGAGGKTLCSCQNVSQQTVLGGIARGLDLDGLKREFGCGTGCGSCVPEIKRLLAAP | failed
2 | MSMLKRTLVLLGDTPSSLAARAYAFRLVQQTGTDLTGLAGVDLGEIEAPMLGGIGMSAYQTQLQTELKRQADATRERLQAAFSDECRSRSIACAALSFEGDAADGFRLATETRDLAIAGHDTGFGGSQEPLSAMIAKLVVRTPRPLIVCPDELPAGDAVLIAYDGSLPAMRALQVFALLGLGDGKQICVLAIDRDEAAAVRKANAAAEFLKIHGHAAQAVPSSSGDDPADLIRSAVAERNIGTVVMGAYGNRGFREALFGSTTDALVDTPPCALFLYH | failed
3 | MENWDLSSDEMQDGNAPELDVIEEHNPVTRDDENANPEEVVGDTRSPVQNILGKFEGDINKRLHIKRKRMETYIKDSFKDSNVKLEQLWKTNKQERKKINNKFCEQYITTFQKFDMDVQKFNEEQEKSVNNYQKEQQALKLSKCSQSQTLEAIKDMHENYMEGLMNLETNNYNMLFDVDGELRKEMSVFKKDLMKHTLKYSSSFPSSD | failed
4 | MNFVTFQFVVFLVITVIVFMMMSPYYRKYFILLCSYFFYGTWSVPLISVILFSTSVDYYLGKKIHESHSQTHKKLYLTLSILVNCSILVYFKYMNFFISSIDAIGFSLGATQLLLNPMHIILPLGVSFYTFEAISYIVDIYRGEKPASSWLNYNFYIMYFPHLISGPIVRYKELHAQYESKIELPETSRLKEGFQLLLYGFIFKLVIADSMASISDPLFDKYQTIGHLESWLASIAFTIQIYFDFLGYTHIARGVSLFFNIKLPVNFNHPYNARNISEFWQRWHITLSLWIRDYLYIPLGGNRGRLYQTVNNLLITMFIAGLWHGASWNYAIWGTYHGCLLAVYHVFRFYYIKRNLQTENQLMKIGSIIMTYSLVVIGWVIFRSTSFEQAFTILGKMYDIPGFVQEFAMNQRASAYTDSLFYLVGMFALCFIGPTFKSIETKILSAVQPFWIKKWLYSLSIFTVLIFMFSPVKPFIYFVF | failed
5 | MKTTPDILDQIRVHGADAYPEEGCGFLLGTVTDDGDNRVAALHRATNRRSEQRTRRYELTADDYRAADAAAQEQGLDVVGVYHSHPDHPARPSATDLEEATFPGFTYVIVSVRDGAPEALTAWALAPDRSEFHREDIVRPDPEAPLEHHHHHH | failed
6 | MLLSSCQSLFSPAYQSTLRPSDNPQTVEQVQKNDPRAQMGAREHPRIVASYGGEYRDAKTERLVARIAGALTAVSENPQQSYRITILNSPAINAFALPGGYLYVTRGLLALANDASEVAAVLSHEMGHVTANHGIERQRREEAEVIASRVVAEVLSSDLAGKQALARGKLRLAAFSRQQELQADVIGVRMLGEAGYDPYASPRFLDSMAAYARFSSADPENDQSLDFLSSHPNTPQRIELARRHARAFGQEGQVGDRGRDWFLDGIDGLLYGDSPQEGYVRGQTFLHGTLGIRFDVPEGFVIDNKVEAVLATGPGDMAIRFDGVADPKQTSLANYLTSGWVAGLLPETVKETQINGLEAATARASADKWDFDVTVIRVGQQIFRFLTAVPKGNTQLDSIANVLRTSFRKMTPQEIASLKPLRVRVVTVKPGETVATMAARMMGTERKLDMFRMINAMSATATLQPGQRVKIISELEHHHHHH | failed
7 | MKISLRLAVSSILGAIAYLGLAIWGMGGFSAFFGHPQLTLIAIATLLMVVAALYSEVNLSSGEQEDQGNRWVLPVFGVIGLLSGFVPAYSDRIDFCTFGGEGLRWLGALLFILGGGLRLWPVFILGRRFSGLVAIQPNHRLVVDGLYRHLRNPSYLGLLVNALGWALAFRSGLGLLLAALTLVPLIARIHAEEALLLKHFGKEYEAYCARSWRLLPGLY | failed
8 | MNNTKTYSKTSIALHWIVGLAFIGVFIIGAYLSDLPRGPEKMELVALHKSFGVLILLIALARVFWRIKEGAIPPASVMPAWQEKVAKAVHGLLLLATLAMPLSGIAMNIGGGRALEVFGYTLVAAGEKVVWLQELGAAVHKTAPPIIIAIVLLHIAAVLKHHLIDKDATMARMLGRG | failed
9 | DGVRLLEELGAINAEAKDAKKRLTSIGRQLARLPIDPRLARMVLEAPKYGALKEVMIIAAALSIQDPRERPSDKQQSSDDKHRRFFHEESDFLTFV | failed
10 | MNQPTSETRTVVVERELPHSPEKIWRALTQPHLIEAWLMKSDFEPVAGRTFSFHADWGSVDCTLLTIEPERVLSYTWAAYGLESVVTWTLTPTPGGTLLRMEQAGFRADQEQAYRGAQQGWVRFFDSLEQVVARADEDEEGRA | failed
11 | TRGSAQMQPYFEELLLSLGPILKNITNSMVISGHTDSTPYAGSLFTNWELSSERALLARRVLERGGVKRDQVIQVTGMADQVPYITSDTAAAANRRIEALILTS | failed
12 | MSTDSDTTPDTEEAREQLIDLAADFYDQFADGEVPTMTIPTRTKSNIVFDEDEQVWVYGDRNSTRSAKTISGAEKILKAVYTIDFLSQQLEEDRSSTLRELYYLSESWDLDEAQFNTQDESNNLIEDLEIVSDVKREDFHMRPEESGAKVMGPLLLREQTNRGDREIHCQDDVGQGGYQIPNNPDTIEFLDNDAKFVLCVETGGMRDRLVENGFDDEYDALVVHLGGQPARATRRLIKRLHDELDLPVTVFTDGDPWSYRIFGSVSYGSIKSAHLSEYLATPEAQFIGIRPEDIVEYELPTDPLSDSDVNALESELEDPRFQTDFWEEQIELQLDINKKAEQQALASRGLDFVTETYLPERLDEMGIL | failed
13 | SDWLWQTDAHGRLVHVPERFVEVAKLPPSLLIGAPLADVIGMLCPEDGRCAMGVAAKMAQREPMNDLVVHVVIGGTPRLWSLTAKPMFDAAGEFAGYRGVGRDVTERWRAEQAEAENRAKSSFLAMMSHEIRTPMNGVLGLANSLLETK | failed
14 | MDSIKGVFTGNKDTPLEESNLPVEAFTLLRFADELKNARRLGKFKQYIVGRSSEATFADAFEKQEAVIRYLGALDATGENLQASQKQDAAKHCKCTITDVENTLSKFTWARQAHKKMTELKEGGKPLPKNMGEVFFSLCILICFFSSISSYV | failed
15 | MFNKRLKQQLATLSDELNALQQFKACLESQVLNLELDGEGAIRRANQNFIQALELDGQPLAGVALESIISRHPQAVPLYREFKAALGRNESYTGQLRLQRGGGREAWLQVCVQPIRDGAGRLDHYNLICTDQS | failed
16 | MSLFLKDDSIQIREVWNDNLQEEMDLIRDVVDDFPYVAMDTEFPGIVVRPVGTFKSNADYHYETLKTNVNILKMIQLGLTFSNEQGNLPTCGTDKYCIWQFNFREFDLDSDIFALDSIELLKQSGIDLAKNTLDGIDSKRFAELLMSSGIVLNENVHWVTFHSGYDFGYLLKLLTCQNLPDSQTDFFKLINVYFPTVYDIKHLMKFCNSLHGGLNKLAELLEVERVGICHQAGSDSLLTSCTFRKLKENFFVGPLHKYSGVLYGLGVENGQVAI | failed
17 | LKYILETKLEEERNHLEELLEKVEEDYEGINYDEVLEALKLFKDNYELPKSKIKRKIRIFLIKENILFLNPQKGTLKPQSYLVWNAIKRML | not failed
18 | MEQDASAKNPDIETENKGAISEEEALIQREYSLLIQDYLNSNHRRKVEKIDKAFHLAKDAHAGAKRRSGEPYILHPIAVARIVCQEIGLGSTSICCALLHDVVEDTEYTVEDMRDMFGDKVAQIVDGLTKISGEVFSNSSAQAENFRKLILTMNDDIRVILIKIADRLHNMRTLDSMLPAKQMKIAGETQYVYAPLAHRLGLFAIKSELEDLSFKYEHPQEYEAIKEKIRITEQHRLEMFEHFAAPLKQRFAGMDMSYEMKARVKSVYSIWKKMEKKGVPFEEIYDLFAVRIIFESSPTIPDKNRCWEIYSAITDIYRNRPDRIRDWVSNPKSNGYQALHLTVMGPDGEWVEVQIRSRRMDDIAEKGFAAHWKYKGDNVEEDSELEKWLSTIQEILENPNPNALDFLDTIKLNLFSNEVMVFTPKGEIKRLPQGATALDFAYSLHSDLGDHCIGAKVNHKLVPLSYVLNSGDQVEVLSSKSQQPTEEWLRYVTTARAKSKVDTFLRRKRRELINRGEERVVSVIRTSESMVSAELLDRIAAYFGFLNRETFFYAVGTGTVSLPESFKKLLQGEHSGNFLMRAIRSALKAGKSNKTSSPSGKPAEKEDKKAYNTKKTYILQEDEFSRNYQIAECCKPIPGDDAFGFINDDNTVVVHKRSCPIAMRLKSSFGNRILSTEWSLHSRTSFEAKLALKGIDSTGILTAVTQVISEDFNVGIKHIQLTAKDGIFEGQIHLLVHSSDDLLKICHQLRQNKYIQSVGRIS | failed
19 | MSQPTPAVRTFQDLILALQQYWAEQGCVVLQPYDMEVGAGTFHTATFLRAIGPETWNAAYVQPSRRPTDGRYGENPNRLQHYYQFQVVLKPNPENFQELYLGSLKHVGLDPLVHDIRFVEDNWESPTLGAWGLGWEVWLNGMEVTQFTYFQQAGGIECYPVTGEITYGLERLAMYLQGVDSVYDLVWADGPFGKVTYGDVFHQNEVEQSTYNFEHANVEKLFELFDFYESEAKRLIELDQPLPLPSYEMVLKASHTFNLLDARRAISVTARQQYILRVRTLARSVAQAYLLARAKLGFPMATPDLRDEVLAKLEAAQ | failed
20 | MVLPSSHRILVVDDNAVTRYSVRRVLEHHQFVVEEAGTGGEGLVRLAAEAFAAVVLDVNLPDMSGFDIVRTLRAEPRTALLPVVHVSAASIATGDMITGLDAGADAYLIHPVDPNVLVATLRTLLRARNAEEALRLSEARFREIFEHIGAPIAVVDAQLHTQEANAAFQRLIGSATPCEAINVPGLDQCATVQALTAALGRRERWSGTLSILRDGAVRETEWRVSPYREPDLGLLFVEDVTEQRLREREQRQELDTATSELAHQIAERQRTEIQLLQAQKMEALGKLTGGIAHDFNNLLTSIISGLDMIQLAVESNRIERVPRLAEIATGSAHRAAALTQRMLAFARKQSLDAQPFDVNARVRSLEDMLRRSIGENIALELQLAEAPLVAIADANQLENVVLNLVINARDALQGHGTIRIQSAPHTAYNDPELEDGDYVAVNVIDDGSGIDPAILSQVFEPFFTTKPIGEGTGLGLSMTYGFARQSGGTARITSTLGSGTTVALLLPRGLTVGEALPPPPPNAPRGRSQRILLVDDTDVVRMMVSEVLSDAGYHVIEAENADGALAQLRADAQIDMVVSDVGLPGMNGRDMADVARDLRPGLPILFITGYAENAATRQEFLAEGMALLPKPFSLNDLLNTVSRMLG | failed
